# Source: the supplement of paper PMC10065799, “High-throughput profiling of sequence recognition by tyrosine kinases and SH2 domains using bacterial peptide display” (eLife, 2023)
# Tested on: c-Src
# Assay: phosphorylation enrichment, bacterial display (enrichment ratio); higher = better substrate or ligand; peptides without Tyr show the background
# 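Further: 11-residue human phosphosite peptides and single-mutation variants displayed on the E. coli surface, counted by deep sequencing, each peptide's frequency after selection divided by its frequency in the unselected input library; frequency after pTyr selection over input frequency; kinase dosed for 20-30% of maximal phosphorylation in three min.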
row,Sequence,phosphorylation enrichment
1,SSEYHYVGGFY [CTSC_Y347],3.33
2,PHMQTYEVDHN [SDHB_Y61_L65H],1.04
3,IGEVVYQWAVM [GRIN2A_Y502_R504W],1.47
4,LTGIAYGLPHW [SLC22A14_Y291_S292G],0.574
5,NDTAGYFVIGG [SEL1L3_Y399_I401V],0.727
6,SLNAVYPRAGR [OAS3_Y376_S381R],0.525
7,KFVKMCDNHQL [MYO9A_Y203_Y203C_YF],0.441
8,FMGVEYSSCDT [EPHA3_Y937_T933M],0.521
9,GNLLIYTDFGK [HGD_Y166_E168D],4.63
10,DSDTDYGSGYP [RNASEH2A_Y206_L202S],0.689
11,ASLLPYFPAIM [IPO4_Y518],0.457
12,WNGDKYAATTT [TRIM39_Y439],0.421
13,QGQHWYSSSDK [CASP10_Y9],0.552
14,HVIKLFGACSQ [RET_Y791_Y791F],0.519
15,RRNTYYASIAK [ACADM_Y353],0.81
16,IENPQYFSDAC [NTRK1_Y496],0.542
17,KGERGYPGTLG [COL4A1_Y348_P352L],0.337

row,Sequence,phosphorylation enrichment
1,SSLEDYVRETN [GIMAP6_Y176_G171S],0.44
2,SIKDKYVTALC [KCNH2_Y611_Y616C],0.386
3,KPVDTYYDSTR [DYNC2H1_Y2230_M2227V],0.56
4,TNYRFYLRSLE [MTM1_Y71_L70F],0.41
5,RDLTHYLMKIL [ACTG1_Y188_D187H],0.463
6,ASTDYYKRGDF [PDHA1_Y243],0.5
7,QGQHWYSSSDT [CASP10_Y9_K14T],0.982
8,NNHGNYIVHLG [ETFDH_Y172_R175H],0.391
9,YADPYYDYEIE [ZC3H18_Y372],3.01
10,KLFFIYTSGTT [SLC27A4_Y245_YF],0.345
11,CTTIHDNYMCN [TP53_Y234_Y234D],0.44
12,HESEIYCKVCF [CSRP3_Y57_YF],6.41
13,NDFGNYSNQSS [HNRNPA1_Y318_N319S],0.463
14,RDMMDYMPQGV [CYP21A2_Y259_L261P],0.596
15,EMTRNYIIFIE [BCO2_Y294_G289E],0.464
16,ADLAKYICENQ [ALB_Y287],0.505

# Target: EPHB1 (UniProt P54762)
# Sequence (P54762 whole entry, looked up): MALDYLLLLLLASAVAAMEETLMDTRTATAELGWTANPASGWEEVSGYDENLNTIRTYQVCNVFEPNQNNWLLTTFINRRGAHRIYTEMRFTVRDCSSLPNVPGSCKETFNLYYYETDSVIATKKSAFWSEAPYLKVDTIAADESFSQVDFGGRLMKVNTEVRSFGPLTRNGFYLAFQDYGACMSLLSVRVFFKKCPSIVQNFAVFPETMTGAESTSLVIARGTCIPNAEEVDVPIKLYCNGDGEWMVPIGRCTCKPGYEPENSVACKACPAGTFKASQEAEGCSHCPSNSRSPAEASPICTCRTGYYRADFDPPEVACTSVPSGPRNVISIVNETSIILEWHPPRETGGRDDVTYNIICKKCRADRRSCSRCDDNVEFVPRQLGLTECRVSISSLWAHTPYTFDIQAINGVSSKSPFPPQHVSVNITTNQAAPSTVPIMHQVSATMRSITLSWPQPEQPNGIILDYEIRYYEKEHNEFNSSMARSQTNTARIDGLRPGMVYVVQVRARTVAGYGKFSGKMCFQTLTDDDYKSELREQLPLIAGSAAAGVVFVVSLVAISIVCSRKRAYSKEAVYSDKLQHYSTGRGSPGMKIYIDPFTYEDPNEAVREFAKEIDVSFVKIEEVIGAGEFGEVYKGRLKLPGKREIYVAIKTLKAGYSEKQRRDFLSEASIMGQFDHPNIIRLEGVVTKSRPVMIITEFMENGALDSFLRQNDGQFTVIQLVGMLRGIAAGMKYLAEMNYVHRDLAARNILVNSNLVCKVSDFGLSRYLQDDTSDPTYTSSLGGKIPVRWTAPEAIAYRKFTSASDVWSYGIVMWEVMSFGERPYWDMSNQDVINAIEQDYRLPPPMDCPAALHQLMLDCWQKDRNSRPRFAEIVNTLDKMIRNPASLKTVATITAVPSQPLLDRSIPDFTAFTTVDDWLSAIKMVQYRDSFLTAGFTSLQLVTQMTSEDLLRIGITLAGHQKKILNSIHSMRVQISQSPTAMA
# Assay: as above
row,Sequence,phosphorylation enrichment
1,SSEYHYVGGFY [CTSC_Y347],9.7
2,PHMQTYEVDHN [SDHB_Y61_L65H],0.758
3,IGEVVYQWAVM [GRIN2A_Y502_R504W],0.89
4,LTGIAYGLPHW [SLC22A14_Y291_S292G],0.56
5,NDTAGYFVIGG [SEL1L3_Y399_I401V],0.669
6,SLNAVYPRAGR [OAS3_Y376_S381R],0.354
7,KFVKMCDNHQL [MYO9A_Y203_Y203C_YF],0.425
8,FMGVEYSSCDT [EPHA3_Y937_T933M],0.683
9,GNLLIYTDFGK [HGD_Y166_E168D],3.06
10,DSDTDYGSGYP [RNASEH2A_Y206_L202S],0.708
11,ASLLPYFPAIM [IPO4_Y518],0.479
12,WNGDKYAATTT [TRIM39_Y439],0.462
13,QGQHWYSSSDK [CASP10_Y9],0.766
14,HVIKLFGACSQ [RET_Y791_Y791F],1.01
15,RRNTYYASIAK [ACADM_Y353],0.702
16,IENPQYFSDAC [NTRK1_Y496],0.648
17,KGERGYPGTLG [COL4A1_Y348_P352L],0.339

row,Sequence,phosphorylation enrichment
1,SSLEDYVRETN [GIMAP6_Y176_G171S],0.46
2,SIKDKYVTALC [KCNH2_Y611_Y616C],0.387
3,KPVDTYYDSTR [DYNC2H1_Y2230_M2227V],0.648
4,TNYRFYLRSLE [MTM1_Y71_L70F],0.619
5,RDLTHYLMKIL [ACTG1_Y188_D187H],1.05
6,ASTDYYKRGDF [PDHA1_Y243],0.287
7,QGQHWYSSSDT [CASP10_Y9_K14T],0.859
8,NNHGNYIVHLG [ETFDH_Y172_R175H],4.2
9,YADPYYDYEIE [ZC3H18_Y372],2.05
10,KLFFIYTSGTT [SLC27A4_Y245_YF],0.633
11,CTTIHDNYMCN [TP53_Y234_Y234D],0.521
12,HESEIYCKVCF [CSRP3_Y57_YF],0.854
13,NDFGNYSNQSS [HNRNPA1_Y318_N319S],6.89
14,RDMMDYMPQGV [CYP21A2_Y259_L261P],0.921
15,EMTRNYIIFIE [BCO2_Y294_G289E],0.51
16,ADLAKYICENQ [ALB_Y287],0.672

# Target: Fyn (UniProt P06241)
# Sequence (P06241 whole entry, looked up): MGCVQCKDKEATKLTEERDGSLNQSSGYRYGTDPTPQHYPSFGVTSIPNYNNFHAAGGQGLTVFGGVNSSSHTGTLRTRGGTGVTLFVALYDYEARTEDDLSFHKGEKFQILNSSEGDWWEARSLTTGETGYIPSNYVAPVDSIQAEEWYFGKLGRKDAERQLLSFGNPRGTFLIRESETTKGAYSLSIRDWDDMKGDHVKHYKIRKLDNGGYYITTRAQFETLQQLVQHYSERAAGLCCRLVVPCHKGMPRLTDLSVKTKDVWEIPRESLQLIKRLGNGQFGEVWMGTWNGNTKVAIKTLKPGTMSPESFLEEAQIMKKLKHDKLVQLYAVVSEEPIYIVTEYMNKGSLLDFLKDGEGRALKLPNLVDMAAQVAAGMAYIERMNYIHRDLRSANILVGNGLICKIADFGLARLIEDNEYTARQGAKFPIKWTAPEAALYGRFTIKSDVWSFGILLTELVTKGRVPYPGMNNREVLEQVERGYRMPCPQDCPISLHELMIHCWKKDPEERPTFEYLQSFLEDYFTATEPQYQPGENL
# Assay: as above
row,Sequence,phosphorylation enrichment
1,SSEYHYVGGFY [CTSC_Y347],3.79
2,PHMQTYEVDHN [SDHB_Y61_L65H],1.03
3,IGEVVYQWAVM [GRIN2A_Y502_R504W],1.16
4,LTGIAYGLPHW [SLC22A14_Y291_S292G],0.578
5,NDTAGYFVIGG [SEL1L3_Y399_I401V],0.848
6,SLNAVYPRAGR [OAS3_Y376_S381R],0.471
7,KFVKMCDNHQL [MYO9A_Y203_Y203C_YF],0.419
8,FMGVEYSSCDT [EPHA3_Y937_T933M],0.441
9,GNLLIYTDFGK [HGD_Y166_E168D],4.75
10,DSDTDYGSGYP [RNASEH2A_Y206_L202S],0.677
11,ASLLPYFPAIM [IPO4_Y518],0.544
12,WNGDKYAATTT [TRIM39_Y439],0.48
13,QGQHWYSSSDK [CASP10_Y9],0.671
14,HVIKLFGACSQ [RET_Y791_Y791F],0.816
15,RRNTYYASIAK [ACADM_Y353],0.762
16,IENPQYFSDAC [NTRK1_Y496],0.516
17,KGERGYPGTLG [COL4A1_Y348_P352L],0.392

row,Sequence,phosphorylation enrichment
1,SSLEDYVRETN [GIMAP6_Y176_G171S],0.485
2,SIKDKYVTALC [KCNH2_Y611_Y616C],0.393
3,KPVDTYYDSTR [DYNC2H1_Y2230_M2227V],0.508
4,TNYRFYLRSLE [MTM1_Y71_L70F],0.48
5,RDLTHYLMKIL [ACTG1_Y188_D187H],0.756
6,ASTDYYKRGDF [PDHA1_Y243],0.368
7,QGQHWYSSSDT [CASP10_Y9_K14T],0.672
8,NNHGNYIVHLG [ETFDH_Y172_R175H],0.525
9,YADPYYDYEIE [ZC3H18_Y372],2.52
10,KLFFIYTSGTT [SLC27A4_Y245_YF],0.435
11,CTTIHDNYMCN [TP53_Y234_Y234D],0.435
12,HESEIYCKVCF [CSRP3_Y57_YF],5.35
13,NDFGNYSNQSS [HNRNPA1_Y318_N319S],0.416
14,RDMMDYMPQGV [CYP21A2_Y259_L261P],0.636
15,EMTRNYIIFIE [BCO2_Y294_G289E],0.586
16,ADLAKYICENQ [ALB_Y287],0.461

# Target: Hck (UniProt P08631)
# Sequence (P08631 whole entry, looked up): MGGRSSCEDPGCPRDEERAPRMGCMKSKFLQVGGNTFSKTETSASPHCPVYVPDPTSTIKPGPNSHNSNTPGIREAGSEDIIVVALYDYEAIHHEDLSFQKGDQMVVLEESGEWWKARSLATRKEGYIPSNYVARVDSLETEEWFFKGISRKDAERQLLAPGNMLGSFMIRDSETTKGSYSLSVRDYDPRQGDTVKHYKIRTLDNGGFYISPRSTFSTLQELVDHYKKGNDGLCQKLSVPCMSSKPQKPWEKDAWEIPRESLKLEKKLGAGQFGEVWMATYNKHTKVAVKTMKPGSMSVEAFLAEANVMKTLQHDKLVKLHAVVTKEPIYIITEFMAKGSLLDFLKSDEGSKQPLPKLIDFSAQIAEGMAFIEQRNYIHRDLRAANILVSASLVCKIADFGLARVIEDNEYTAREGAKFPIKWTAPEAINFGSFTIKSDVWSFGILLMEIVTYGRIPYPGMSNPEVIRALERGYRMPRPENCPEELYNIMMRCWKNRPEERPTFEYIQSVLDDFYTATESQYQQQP
# Assay: as above
row,Sequence,phosphorylation enrichment
1,SSEYHYVGGFY [CTSC_Y347],4.79
2,PHMQTYEVDHN [SDHB_Y61_L65H],0.506
3,IGEVVYQWAVM [GRIN2A_Y502_R504W],1.1
4,LTGIAYGLPHW [SLC22A14_Y291_S292G],0.631
5,NDTAGYFVIGG [SEL1L3_Y399_I401V],0.75
6,SLNAVYPRAGR [OAS3_Y376_S381R],0.405
7,KFVKMCDNHQL [MYO9A_Y203_Y203C_YF],0.42
8,FMGVEYSSCDT [EPHA3_Y937_T933M],0.61
9,GNLLIYTDFGK [HGD_Y166_E168D],3.49
10,DSDTDYGSGYP [RNASEH2A_Y206_L202S],0.699
11,ASLLPYFPAIM [IPO4_Y518],0.484
12,WNGDKYAATTT [TRIM39_Y439],0.52
13,QGQHWYSSSDK [CASP10_Y9],0.754
14,HVIKLFGACSQ [RET_Y791_Y791F],0.855
15,RRNTYYASIAK [ACADM_Y353],0.853
16,IENPQYFSDAC [NTRK1_Y496],0.626
17,KGERGYPGTLG [COL4A1_Y348_P352L],0.448

row,Sequence,phosphorylation enrichment
1,SSLEDYVRETN [GIMAP6_Y176_G171S],0.431
2,SIKDKYVTALC [KCNH2_Y611_Y616C],0.362
3,KPVDTYYDSTR [DYNC2H1_Y2230_M2227V],0.808
4,TNYRFYLRSLE [MTM1_Y71_L70F],0.558
5,RDLTHYLMKIL [ACTG1_Y188_D187H],1.06
6,ASTDYYKRGDF [PDHA1_Y243],0.465
7,QGQHWYSSSDT [CASP10_Y9_K14T],0.573
8,NNHGNYIVHLG [ETFDH_Y172_R175H],0.511
9,YADPYYDYEIE [ZC3H18_Y372],1.06
10,KLFFIYTSGTT [SLC27A4_Y245_YF],0.424
11,CTTIHDNYMCN [TP53_Y234_Y234D],0.546
12,HESEIYCKVCF [CSRP3_Y57_YF],7.63
13,NDFGNYSNQSS [HNRNPA1_Y318_N319S],0.451
14,RDMMDYMPQGV [CYP21A2_Y259_L261P],0.578
15,EMTRNYIIFIE [BCO2_Y294_G289E],0.534
16,ADLAKYICENQ [ALB_Y287],0.627
